Reference: article PMC2652359

Molecular target: human factor Xa (human)
Assay: functional titration of prothrombinase activity

Chain of human factor Xa (human) (P00742 whole entry): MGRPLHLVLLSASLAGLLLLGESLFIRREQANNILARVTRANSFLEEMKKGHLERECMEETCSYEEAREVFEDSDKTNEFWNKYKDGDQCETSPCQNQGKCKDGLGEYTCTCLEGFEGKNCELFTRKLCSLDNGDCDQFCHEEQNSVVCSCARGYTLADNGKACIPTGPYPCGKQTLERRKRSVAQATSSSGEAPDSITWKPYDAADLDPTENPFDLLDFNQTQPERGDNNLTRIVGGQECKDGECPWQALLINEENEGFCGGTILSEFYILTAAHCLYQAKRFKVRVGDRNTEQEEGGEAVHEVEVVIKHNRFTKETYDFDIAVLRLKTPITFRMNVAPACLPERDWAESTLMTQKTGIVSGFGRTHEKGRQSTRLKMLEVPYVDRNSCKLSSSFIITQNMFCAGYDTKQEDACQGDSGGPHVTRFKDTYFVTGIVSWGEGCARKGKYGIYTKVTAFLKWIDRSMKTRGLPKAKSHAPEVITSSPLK

Kd: 0.24 nM
Substance: recombinant wild-type human factor Va (from UniProt P12259 29-737; P12259 1574-2224) (natural protein)
